According to the Human Domainome abundance scans (Beltran et al. 2025):
± gives the uncertainty stated by the source.

B1: Peripheral plasma membrane protein CASK, residues 488 to 569; numbered along this chain, O14936 (parent)
chain: VRLVQFQKNTDEPMGITLKMNELNHCIVARIMHGGMIHRQGTLHVGDEIREINGISVANQTVEQLQKMLREMRGSITFKIVP

Variants of: B1
Test: abundance fitness (aPCA) (normalised: wild type 0, dead -1); higher = more abundant; growth selection in yeast, the domain comes from the species named
Conditions: Homo sapiens

In order of rising abundance fitness:
1. VRLVQFQKNTDEPMGITLKMNELNHCIVARIMHGGMIHRQGTLHVGDEIREINGISVANQTVEQLQKMLREMRGSITDKIVP  -1.22 ± 0.36
2. VRLVQFQKNTDEPMGITLKMNELNHCIVARIMHGGMIHRQGTLHVGDEIREINGISVANQTVEQLQKMLREMRGSKTFKIVP  -1.11 ± 0.13
3. VRLVQFQKNTDEPMGITLKMNELNHCIVARIMHGGMIHRQGTLHVGDEIREINGISVANQTVEQLQKMLREMRGSRTFKIVP  -1.06 ± 0.065
4. VRLVQFQKNTDEPMGITLKMNELNHCIVARIMHGGMIHRQGTLHVGDEIREINGISVANQTVEQLQKMLREMRGSETFKIVP  -1.04 ± 0.098
5. VRLVQFQKNTDEPMGITLKMNELNHCIVARIMHGGMIHRQGTLHVGDEIREINGISVANQTVEQLQKMLREMRGSITKKIVP  -0.964 ± 0.15
6. VRLVQFQKNTDEPMGITLKMNELNHCIVARIMHGGMIHRQGTLHVGDEIREINGISVANQTVEQLQKMLREMRGSITHKIVP  -0.95 ± 0.16
7. VRLVQFQKNTDEPMGITLKMNELNHCIVARIMHGGMIHRQGTLHVGDEIREINGISVANQTVEQLQKMLREMRGSITNKIVP  -0.922 ± 0.16
8. VRLVQFQKNTDEPMGITLKMNELNHCIVARIMHGGMIHRQGTLHVGDEIREINGISVANQTVEQLQKMLREMRGSITGKIVP  -0.886 ± 0.1
9. VRLVQFQKNTDEPMGITLKMNELNHCIVARIMHGGMIHRQGTLHVGDEIREINGISVANQTVEQLQKMLREMRGSDTFKIVP  -0.818 ± 0.1
10. VRLVQFQKNTDEPMGITLKMNELNHCIVARIMHGGMIHRQGTLHVGDEIREINGISVANQTVEQLQKMLREMRVSITFKIVP  -0.716 ± 0.036
11. VRLVQFQKNTDEPMGITLKMNELNHCIVARIMHGGMIHRQGTLHVGDEIREINGISVANQTVEQLQKMLREMRGSPTFKIVP  -0.647 ± 0.094
12. VRLVQFQKNTDEPMGITLKMNELNHCIVARIMHGGMIHRQGTLHVGDEIREINGISVANQTVEQLQKMLREMRGSHTFKIVP  -0.544 ± 0.1
13. VRLVQFQKNTDEPMGITLKMNELNHCIVARIMHGGMIHRQGTLHVGDEIREINGISVANQTVEQLQKMLREMRYSITFKIVP  -0.521 ± 0.068
14. VRLVQFQKNTDEPMGITLKMNELNHCIVARIMHGGMIHRQGTLHVGDEIREINGISVANQTVEQLQKMLREMRGSITAKIVP  -0.473 ± 0.047
15. VRLVQFQKNTDEPMGITLKMNELNHCIVARIMHGGMIHRQGTLHVGDEIREINGISVANQTVEQLQKMLREMRGSSTFKIVP  -0.448 ± 0.037
16. VRLVQFQKNTDEPMGITLKMNELNHCIVARIMHGGMIHRQGTLHVGDEIREINGISVANQTVEQLQKMLREMRGSYTFKIVP  -0.339 ± 0.074
17. VRLVQFQKNTDEPMGITLKMNELNHCIVARIMHGGMIHRQGTLHVGDEIREINGISVANQTVEQLQKMLREMRGSIMFKIVP  -0.309 ± 0.22
18. VRLVQFQKNTDEPMGITLKMNELNHCIVARIMHGGMIHRQGTLHVGDEIREINGISVANQTVEQLQKMLREMRGSATFKIVP  -0.308 ± 0.033
19. VRLVQFQKNTDEPMGITLKMNELNHCIVARIMHGGMIHRQGTLHVGDEIREINGISVANQTVEQLQKMLREMRGSTTFKIVP  -0.269 ± 0.04
20. VRLVQFQKNTDEPMGITLKMNELNHCIVARIMHGGMIHRQGTLHVGDEIREINGISVANQTVEQLQKMLREMRGSIGFKIVP  -0.248 ± 0.047
21. VRLVQFQKNTDEPMGITLKMNELNHCIVARIMHGGMIHRQGTLHVGDEIREINGISVANQTVEQLQKMLREMRGSWTFKIVP  -0.236 ± 0.032
22. VRLVQFQKNTDEPMGITLKMNELNHCIVARIMHGGMIHRQGTLHVGDEIREINGISVANQTVEQLQKMLREMRGSITCKIVP  -0.233 ± 0.052
23. VRLVQFQKNTDEPMGITLKMNELNHCIVARIMHGGMIHRQGTLHVGDEIREINGISVANQTVEQLQKMLREMRGSIHFKIVP  -0.194 ± 0.055
24. VRLVQFQKNTDEPMGITLKMNELNHCIVARIMHGGMIHRQGTLHVGDEIREINGISVANQTVEQLQKMLREMRGSNTFKIVP  -0.186 ± 0.051
25. VRLVQFQKNTDEPMGITLKMNELNHCIVARIMHGGMIHRQGTLHVGDEIREINGISVANQTVEQLQKMLREMRGSFTFKIVP  -0.173 ± 0.054
26. VRLVQFQKNTDEPMGITLKMNELNHCIVARIMHGGMIHRQGTLHVGDEIREINGISVANQTVEQLQKMLREMRGSGTFKIVP  -0.157 ± 0.023
27. VRLVQFQKNTDEPMGITLKMNELNHCIVARIMHGGMIHRQGTLHVGDEIREINGISVANQTVEQLQKMLREMRGIITFKIVP  -0.116 ± 0.046
28. VRLVQFQKNTDEPMGITLKMNELNHCIVARIMHGGMIHRQGTLHVGDEIREINGISVANQTVEQLQKMLREMRGYITFKIVP  -0.116 ± 0.048
29. VRLVQFQKNTDEPMGITLKMNELNHCIVARIMHGGMIHRQGTLHVGDEIREINGISVANQTVEQLQKMLREMRGSLTFKIVP  -0.112 ± 0.028
30. VRLVQFQKNTDEPMGITLKMNELNHCIVARIMHGGMIHRQGTLHVGDEIREINGISVANQTVEQLQKMLREMRGSIYFKIVP  -0.112 ± 0.078
31. VRLVQFQKNTDEPMGITLKMNELNHCIVARIMHGGMIHRQGTLHVGDEIREINGISVANQTVEQLQKMLREMRGSIVFKIVP  -0.103 ± 0.046
32. VRLVQFQKNTDEPMGITLKMNELNHCIVARIMHGGMIHRQGTLHVGDEIREINGISVANQTVEQLQKMLREMRGSINFKIVP  -0.096 ± 0.065
33. VRLVQFQKNTDEPMGITLKMNELNHCIVARIMHGGMIHRQGTLHVGDEIREINGISVANQTVEQLQKMLREMRGSIRFKIVP  -0.088 ± 0.035
34. VRLVQFQKNTDEPMGITLKMNELNHCIVARIMHGGMIHRQGTLHVGDEIREINGISVANQTVEQLQKMLREMRGSMTFKIVP  -0.082 ± 0.049
35. VRLVQFQKNTDEPMGITLKMNELNHCIVARIMHGGMIHRQGTLHVGDEIREINGISVANQTVEQLQKMLREMRGMITFKIVP  -0.081 ± 0.041
36. VRLVQFQKNTDEPMGITLKMNELNHCIVARIMHGGMIHRQGTLHVGDEIREINGISVANQTVEQLQKMLREMRGSILFKIVP  -0.064 ± 0.035
37. VRLVQFQKNTDEPMGITLKMNELNHCIVARIMHGGMIHRQGTLHVGDEIREINGISVANQTVEQLQKMLREMRGSIDFKIVP  -0.061 ± 0.065
38. VRLVQFQKNTDEPMGITLKMNELNHCIVARIMHGGMIHRQGTLHVGDEIREINGISVANQTVEQLQKMLREMRGSICFKIVP  -0.058 ± 0.051
39. VRLVQFQKNTDEPMGITLKMNELNHCIVARIMHGGMIHRQGTLHVGDEIREINGISVANQTVEQLQKMLREMRGHITFKIVP  -0.047 ± 0.053
40. VRLVQFQKNTDEPMGITLKMNELNHCIVARIMHGGMIHRQGTLHVGDEIREINGISVANQTVEQLQKMLREMRGSITIKIVP  -0.045 ± 0.038
41. VRLVQFQKNTDEPMGITLKMNELNHCIVARIMHGGMIHRQGTLHVGDEIREINGISVANQTVEQLQKMLREMRGSIKFKIVP  -0.041 ± 0.057
42. VRLVQFQKNTDEPMGITLKMNELNHCIVARIMHGGMIHRQGTLHVGDEIREINGISVANQTVEQLQKMLREMRGWITFKIVP  -0.04 ± 0.031
43. VRLVQFQKNTDEPMGITLKMNELNHCIVARIMHGGMIHRQGTLHVGDEIREINGISVANQTVEQLQKMLREMRGSIQFKIVP  -0.04 ± 0.039
44. VRLVQFQKNTDEPMGITLKMNELNHCIVARIMHGGMIHRQGTLHVGDEIREINGISVANQTVEQLQKMLREMRGFITFKIVP  -0.037 ± 0.043
45. VRLVQFQKNTDEPMGITLKMNELNHCIVARIMHGGMIHRQGTLHVGDEIREINGISVANQTVEQLQKMLREMRGSIEFKIVP  -0.034 ± 0.059
46. VRLVQFQKNTDEPMGITLKMNELNHCIVARIMHGGMIHRQGTLHVGDEIREINGISVANQTVEQLQKMLREMRGEITFKIVP  -0.029 ± 0.03
47. VRLVQFQKNTDEPMGITLKMNELNHCIVARIMHGGMIHRQGTLHVGDEIREINGISVANQTVEQLQKMLREMRGSCTFKIVP  -0.028 ± 0.039
48. VRLVQFQKNTDEPMGITLKMNELNHCIVARIMHGGMIHRQGTLHVGDEIREINGISVANQTVEQLQKMLREMRGSIAFKIVP  -0.028 ± 0.039
49. VRLVQFQKNTDEPMGITLKMNELNHCIVARIMHGGMIHRQGTLHVGDEIREINGISVANQTVEQLQKMLREMRGSIIFKIVP  -0.026 ± 0.069
50. VRLVQFQKNTDEPMGITLKMNELNHCIVARIMHGGMIHRQGTLHVGDEIREINGISVANQTVEQLQKMLREMRGNITFKIVP  -0.023 ± 0.047
51. VRLVQFQKNTDEPMGITLKMNELNHCIVARIMHGGMIHRQGTLHVGDEIREINGISVANQTVEQLQKMLREMRGSIFFKIVP  -0.019 ± 0.059
52. VRLVQFQKNTDEPMGITLKMNELNHCIVARIMHGGMIHRQGTLHVGDEIREINGISVANQTVEQLQKMLREMRGSIWFKIVP  -0.014 ± 0.048
53. VRLVQFQKNTDEPMGITLKMNELNHCIVARIMHGGMIHRQGTLHVGDEIREINGISVANQTVEQLQKMLREMRGCITFKIVP  -0.011 ± 0.036
54. VRLVQFQKNTDEPMGITLKMNELNHCIVARIMHGGMIHRQGTLHVGDEIREINGISVANQTVEQLQKMLREMRGRITFKIVP  -0.011 ± 0.023
55. VRLVQFQKNTDEPMGITLKMNELNHCIVARIMHGGMIHRQGTLHVGDEIREINGISVANQTVEQLQKMLREMRGSVTFKIVP  -0.01 ± 0.024
56. VRLVQFQKNTDEPMGITLKMNELNHCIVARIMHGGMIHRQGTLHVGDEIREINGISVANQTVEQLQKMLREMRGSITLKIVP  -0.007 ± 0.027
57. VRLVQFQKNTDEPMGITLKMNELNHCIVARIMHGGMIHRQGTLHVGDEIREINGISVANQTVEQLQKMLREMRGPITFKIVP  -0.005 ± 0.048
58. VRLVQFQKNTDEPMGITLKMNELNHCIVARIMHGGMIHRQGTLHVGDEIREINGISVANQTVEQLQKMLREMRGSISFKIVP  -0.002 ± 0.035
59. VRLVQFQKNTDEPMGITLKMNELNHCIVARIMHGGMIHRQGTLHVGDEIREINGISVANQTVEQLQKMLREMRGGITFKIVP  0.001 ± 0.021
60. VRLVQFQKNTDEPMGITLKMNELNHCIVARIMHGGMIHRQGTLHVGDEIREINGISVANQTVEQLQKMLREMRGKITFKIVP  0.005 ± 0.033
61. VRLVQFQKNTDEPMGITLKMNELNHCIVARIMHGGMIHRQGTLHVGDEIREINGISVANQTVEQLQKMLREMRGVITFKIVP  0.011 ± 0.025
62. VRLVQFQKNTDEPMGITLKMNELNHCIVARIMHGGMIHRQGTLHVGDEIREINGISVANQTVEQLQKMLREMRGQITFKIVP  0.019 ± 0.034
63. VRLVQFQKNTDEPMGITLKMNELNHCIVARIMHGGMIHRQGTLHVGDEIREINGISVANQTVEQLQKMLREMRGTITFKIVP  0.023 ± 0.033
64. VRLVQFQKNTDEPMGITLKMNELNHCIVARIMHGGMIHRQGTLHVGDEIREINGISVANQTVEQLQKMLREMRGDITFKIVP  0.033 ± 0.037
65. VRLVQFQKNTDEPMGITLKMNELNHCIVARIMHGGMIHRQGTLHVGDEIREINGISVANQTVEQLQKMLREMRGLITFKIVP  0.034 ± 0.03
66. VRLVQFQKNTDEPMGITLKMNELNHCIVARIMHGGMIHRQGTLHVGDEIREINGISVANQTVEQLQKMLREMRGAITFKIVP  0.04 ± 0.027
67. VRLVQFQKNTDEPMGITLKMNELNHCIVARIMHGGMIHRQGTLHVGDEIREINGISVANQTVEQLQKMLREMRGSITMKIVP  0.052 ± 0.1
